This note sets out measurements from publication PMC11617674, “The activity of the ribonucleotide monophosphatase UmpH is controlled by interaction with the GlnK signaling protein in Escherichia coli” (The Journal of Biological Chemistry, 2024).

For test [1], the target named is His-GlnK (E. coli PII signaling protein GlnK, N-terminal His tag) (E. coli) (UniProt P0AC55). Put plainly: BLI; His-GlnK on Ni-NTA biosensor, UmpH as analyte; 20 mM Hepes pH 7.4, 50 mM KCl, 5 mM MgCl2, 2 mM DTT, 2 mM NAG; 1 mM ADP; 1:1 (GlnK trimer:UmpH monomer) model. On the technique in general: In BLI a coated tip is dipped into the sample, and binding shifts an interference pattern.
Sequence of His-GlnK (E. coli PII signaling protein GlnK, N-terminal His tag) (E. coli) (P0AC55 whole entry): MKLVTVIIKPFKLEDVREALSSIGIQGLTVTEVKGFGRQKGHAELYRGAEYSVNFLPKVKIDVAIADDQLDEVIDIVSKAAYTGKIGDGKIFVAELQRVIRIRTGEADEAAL

For test [2] the target is unchanged. Put plainly: BLI; His-GlnK on Ni-NTA biosensor, UmpH as analyte; 20 mM Hepes pH 7.4, 50 mM KCl, 5 mM MgCl2, 2 mM DTT, 2 mM NAG; 1 mM ATP; 1:1 (GlnK trimer:UmpH monomer) model.
For test [3] the target is unchanged. The experiment in a line: BLI; His-GlnK on Ni-NTA biosensor, UmpH as analyte; 20 mM Hepes pH 7.4, 50 mM KCl, 5 mM MgCl2, 2 mM DTT, 2 mM NAG; no effector; 1:1 (GlnK trimer:UmpH monomer) model.
Test [4] addresses UmpH (ribonucleotide monophosphatase), untagged recombinant (E. coli) (UniProt P0AF24).
Test [5] shares this target. This is another data set of the same source.

Sequence of UmpH (ribonucleotide monophosphatase), untagged recombinant (E. coli) (P0AF24 whole entry): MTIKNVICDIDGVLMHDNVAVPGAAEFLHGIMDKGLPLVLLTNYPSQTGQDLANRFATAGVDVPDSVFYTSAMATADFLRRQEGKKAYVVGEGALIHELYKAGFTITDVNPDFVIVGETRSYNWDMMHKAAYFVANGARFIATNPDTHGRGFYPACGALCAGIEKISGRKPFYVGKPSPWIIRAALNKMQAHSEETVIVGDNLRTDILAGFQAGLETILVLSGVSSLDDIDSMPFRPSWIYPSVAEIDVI

Turning to “UmpH (ribonucleotide monophosphatase), untagged recombinant (from UniProt P0AF24 1-250) (enzyme)”, the equilibrium dissociation constant (Kd) (as a rule, the equilibrium constant for the complex coming apart) in test [1] worked out at 7.8 nM; in test [2], 37.3 nM; in test [3], 50.6 nM.

With “His-GlnK (E. coli PII signaling protein GlnK, N-terminal His tag) (from UniProt P0AC55 1-112) (natural protein)”, in test [4], the UmpH Vmax (phosphate release from UMP), decrease in the presence of 2 μM GlnK trimer, 0.56 μM UmpH monomer, no GlnK effectors turned out to be 30% and the UmpH catalytic efficiency (Vmax/KM) for UMP, decrease in the presence of 2 μM GlnK trimer, 0.56 μM UmpH monomer, no GlnK effectors was 68%. Moreover, the inhibition of UmpH phosphatase activity (0.5 mM UMP, 0.1 mM ADP, 0.56 μM UmpH) against increasing GlnK trimer up to 2 μM in test [5] stood at 50%.
